# Test system: K4 kissing-loop RNA reporter
# Assay: apparent KD of K4 kissing-loop reporter; higher = weaker reporter binding
# Settings: Eterna round: R107; input ligand: arginine 13.2 mM
# Protocol: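 RNA-MaP round R107: designed RNA switches with theophylline, tryptophan, arginine or FMN aptamers are transcribed on-chip within common flanks. They are titrated with a labelled K4 kissing-loop RNA reporter in RNA-MaP buffer (100 mM Tris pH 7.5, 80 mM KCl, 4 mM MgCl2), without ligand or with the indicated ligand. Median apparent KD per design.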
# 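Further: bound reporter read as fluorescence of individual clusters on recovered sequencing chips by microscopy, with normalized cluster intensities fitted with a binding model.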
row,Sequence,apparent KD of K4 kissing-loop reporter [µM]
1,AAAACCAAAAGCGAUACCAGCGCGGAGUGAUGUUCCGAGGAUCGGAGUGAUGUUCCGAAGCGCCCUUGGCAGCGCAAAAGCGCAA [Exclusion Theophylline B GF 7],0.139
2,ACGCUGGUGAAUAACACUAGCGAAAAUUCGCGAGGACCGGUACGGCCGCCACUCGCUAACUGCGAGUGAUGUUCGAUAAUAAAAU [Mat - Mod of OpenEnded 3 - D8],0.0675
3,UGACUGGACUGAAGGAGCGCUAAAACUCCUAGUGAUGUUGGGAAAUAGAGACAAAGUCUCAAGCAGGUAGGUCGCAGUCUAGUCU [ArgBS 23 #SwitchBubble #StaticStem],0.2
4,UAAUAAAUUCCAGCGAUAUCGCUCUUCGAAGGAGCGGGCGAAAGUCCAGGUAGGUCGCGGAGAGUGAUGUUCUUUGCGGCGCUGG [whbob_Ex_Arginine_A_2t134],0.315
5,UAAUCCUAGUGAUAAUAAUCAAGUGGUGGGCGAGGACCGGUACGGCCGCCACUCGAAUAUGCAGUGAUGUUGUAAUCCGGAUAAU [Exclusion - Tryptophan A (Freestyle 6)],0.926
6,AGGAUCACGUCAGUGAUGUUGACGAGAGAUACCAGAGACGAAAGUCUCCCUUGGCAGCUCAUCGUGAUCCGUGACAAAGGUCACA [Omei KL hio A SS C v4],0.203
7,AUUCUGUUUUUAAUGUUUAUUGUAUAAUGGCAGGAUAUCGUAGAAGCGAGAAGGGCUUUUAUGCGUUAUGAGUGAUGUUUGUAGG [dhhyfvmullin],0.247
8,UCUCGGGCCAGUGAUGUUGGCGGCAAGUGGCGAGGACCGGUACGGCCGCCACUCGGCGCAGCAGCGGAGUGAUGUUUCGUGAGUA [Same State Tryptophan A GF 16],1.24
9,GCCGUAGAUUGAAGGAGCGGUAUGGGCGUUGGCUGAGUGAUGUUCAGGAAAAGUGGCUUCUACCAGGUAGGUCGCAAUCUACGGC,0.11
10,AAAAUAAACCAGUGAUGUUGGUGUGUAGAUACCAGCGACGAAAGUCGCCCUUGGCAGCUGUGGACGUACAAAAUAAGUACGUCCU [MatMod 23 - Jieux - Same State - Theophylline A],0.31
11,ACGCGCGCGAGUGAUGUUCGGAGCGGCUGGCAGGAUAUGUAGCAAUGCAGAAGGGUCGUGGCUGCUGGUAGGAAACUACUGGCAG [#2 Exclusion - FMN A Attempt #4 (HarryS)],0.316
12,AAAUUCUUUUUUUUAUAUAACGAUUCAGAAGGAGCGAGGUAGAACUCAGGUAGGUCGCUGAAUAUAAGACUAGUGAUGUUAGUAA [#01 K4 Arginine A Same State],0.193
13,UUACUACCCAGUGAUGUUGGGUAGCGGCCACGAGGACCGGUACGGCCGCCACUCGAGGUUCGGGAGUGAUGUUCCUACUAUUUGG [Same state Tryptophan A GF 6],0.341
14,AGGAUCACGUCAGUGAUGUUGACAAGAGAUACCAGAGACGAAAGUCUCCCUUGGCAGCUCACUGUGAUCCGUGACAAAGGUCACA [Omei KL hio A SS C v1],0.0632
15,GGCGCUGUCUGUGCCGCCCUCCUCGUCCCUCGAGGACCGGUACGGCCGCCACUCGAGUGAUGUUCGGGUAGCCCUCCCUGCCAGC [BDazzled - #22 Exc. Tryptophan A],0.32
16,UGAUACCAGACUGAUACCAGCAAGUGAUGUUUGUUGAUCUAUGCAGUCAAAGACUGCUCUUGCCCUUGGCAGCAGUCUGGUAUCU [TheoBX 28 #SwitchBubble #StaticStem],0.64
17,UGAUUGCCAGUGAUGUUGGCAGGGUCUGAAGGAGCGCGUGAAAACGCAGGUAGGUCGCAGUAUGGUGCCAAUUGAUCGAAAGAUC [KL-XArg-A3],0.186
18,AGACUACCACACUGUCAAUAGACAGUGUACUAGGAUAUGCUGAUAAGCAGAAGGAGUGAUGUUCCAAGGUAGUCAAUAAAAUAAU [FmnAX 13 U28+A66],0.213

row,Sequence,apparent KD of K4 kissing-loop reporter [µM]
1,GUAGGAUGAGGAGGAGGAUGAAUUACUGAAGGAGCGCAGAGAAAUGCAGGUAGGUCGCGGUAAAGAAGUAUAGUGAUGUUAUAUC [#09 K4 Arginine A Same State],0.308
2,UCCCGAGUGAUGUUUGGCUGAUGGAGUGAUACCAGUCCCUAGACUGACCCUUGGCAGCACGACUUGUACCAGGCGGAUCACCCUG [theeternabot_exclusion_KL_Theo_A_5],0.26
3,GGUUUCUGAAGUGAUGUUUCAGGAUGACACAAGGAUAUAUAUGGCGAUAGAAGGUGUGCGUCGCAUGACGAACGACGUCAGCUUC [theeternabot_exclusion_KL_FMN_A_37],0.0809
4,AUUUUGGUUUAGAGUGAUGUUCCUUGUAUUCGAGGACCGGUACGGCCGCCACUCGAAUAGAAAAGAAAAGAAAUGUGUGAUGUUU [BDazzled - #5 SS Tryptophan A],0.611
5,AAUAGGGAUAGUGAUGUUAUCCCUUAUGAUACCAGUGCCAUCGGACACCCUUGGCAGCAUACGGGCAGUGAUGUUGUCCUUGGUG [Exclusion Theophylline A GF 16],0.094
6,AGUACAACUGCGGCCGCCACUCAACGCAGAUCAAAGAUCUGCAUUCACUCAGUGAUGUUGAGUGAGAGGACCGGGCAGUUGUACA [Omei KL Tryp B SS B v3],0.718
7,CAUACGCAUGGAGGAUAUGAGAUUACUCAUAUUACCCUGUAACAGGUAUCUCAGUGAUGUUGAGACUCAGAAGGCCAUGUGUAUG [Ex FMN B 22],0.354
8,UUUUAUAACCGAAGGAGCGCGUGGGCGCAGUGAUGUUGCGCCCGACAUCACUUCAACUUAACGCAGGUAGGUCGCGGUUUUAAUA [Arginine B (Excl) V2],0.132
9,CAUUCGAAAUGCAGUGAUGUUGCAACUGAUACCAGUAUCGAAAGAUACCCUUGGCAGCGGAAAACCGCUACGUUUUUUUUGAAUG [Ex Theophylline A K4 24],0.312
10,GCAUCCGAUGCAGGAUAUAGAUGAACGAGUGAUGUUUGGAAUUUAUGUCCAAAGCCUACGAUCAAACUAGAAGGGCAUCGGAUGC,0.266
11,CCGGGCGGCCGAAGGAGCGGGCGGACCCGAGUGAUGUUCGGGUGGCCCGUGAGGGCCGGUGCCCAGGUAGGUCGCGGAUCCGCCC [#2 Same State - Arginine B Attempt #3 (HarryS)],0.12
12,ACGCGCGCGAGUGAUGUUCGGAGCGGCUGGCAGGAUAUGUAGCAAUGCAGAAGGGUCGUGGCGCUCCCUCCUGAAGGAGGGAGCG [#2 Exclusion - FMN A Attempt #25 (HarryS)],0.307
13,GAAAGAAAGAAUGAUACCAGACACCCGAGUGAUGUUCGGAGCAGAGUGAUGUUCUAAUAAGUCCCUUGGCAGCAUAAAAGAAAAG [Same State Theophylline B GF 1],0.256
14,UAAUUUAUGUCUUUAAUAUAAUUUUCAGAUACCAGUGAUUAUUAACACCCUUGGCAGCUGUAUAGAGUGAUGUUCUUAUGCUUAA [JR_ExcTheophyA_Sub009],0.314
15,UACAUAUCACUUUUUCUACAAUUAUUUAGUCAGGAUAUCGAUUAAACGAGAAGGGACAUUAUCAAGUGAUGUUUGAUAAUUCAAA [JR_Nu_SSFMNA_Sub028],0.129
16,AGGUACAAAAGUACCGCUAGAUCCACGGAAGGAGCGCCGGAAACGGCAGGUAGGUCGCCGGGCAGUGAUGUUGCCGGAUCUAGCA [Omei KL Arginine A SS A v4],0.155
17,GGUAGGGCAGCUGCGGAAACGCAGCAUAUCGAGGAUAUCGGGAAACCGAGAAGGCGAGUAGUGAUGUUACUGGUUUAGCCCUACC,0.167

# Same assay, conditions: Eterna round: R107; input ligand: none
row,Sequence,apparent KD of K4 kissing-loop reporter [µM]
1,AAAACCAAAAGCGAUACCAGCGCGGAGUGAUGUUCCGAGGAUCGGAGUGAUGUUCCGAAGCGCCCUUGGCAGCGCAAAAGCGCAA [Exclusion Theophylline B GF 7],0.171
2,ACGCUGGUGAAUAACACUAGCGAAAAUUCGCGAGGACCGGUACGGCCGCCACUCGCUAACUGCGAGUGAUGUUCGAUAAUAAAAU [Mat - Mod of OpenEnded 3 - D8],0.165
3,UGACUGGACUGAAGGAGCGCUAAAACUCCUAGUGAUGUUGGGAAAUAGAGACAAAGUCUCAAGCAGGUAGGUCGCAGUCUAGUCU [ArgBS 23 #SwitchBubble #StaticStem],0.163
4,UAAUAAAUUCCAGCGAUAUCGCUCUUCGAAGGAGCGGGCGAAAGUCCAGGUAGGUCGCGGAGAGUGAUGUUCUUUGCGGCGCUGG [whbob_Ex_Arginine_A_2t134],0.4
5,UAAUCCUAGUGAUAAUAAUCAAGUGGUGGGCGAGGACCGGUACGGCCGCCACUCGAAUAUGCAGUGAUGUUGUAAUCCGGAUAAU [Exclusion - Tryptophan A (Freestyle 6)],0.919
6,AGGAUCACGUCAGUGAUGUUGACGAGAGAUACCAGAGACGAAAGUCUCCCUUGGCAGCUCAUCGUGAUCCGUGACAAAGGUCACA [Omei KL hio A SS C v4],0.317
7,AUUCUGUUUUUAAUGUUUAUUGUAUAAUGGCAGGAUAUCGUAGAAGCGAGAAGGGCUUUUAUGCGUUAUGAGUGAUGUUUGUAGG [dhhyfvmullin],0.267
8,UCUCGGGCCAGUGAUGUUGGCGGCAAGUGGCGAGGACCGGUACGGCCGCCACUCGGCGCAGCAGCGGAGUGAUGUUUCGUGAGUA [Same State Tryptophan A GF 16],1.23
9,GCCGUAGAUUGAAGGAGCGGUAUGGGCGUUGGCUGAGUGAUGUUCAGGAAAAGUGGCUUCUACCAGGUAGGUCGCAAUCUACGGC,0.13
10,AAAAUAAACCAGUGAUGUUGGUGUGUAGAUACCAGCGACGAAAGUCGCCCUUGGCAGCUGUGGACGUACAAAAUAAGUACGUCCU [MatMod 23 - Jieux - Same State - Theophylline A],0.35
11,ACGCGCGCGAGUGAUGUUCGGAGCGGCUGGCAGGAUAUGUAGCAAUGCAGAAGGGUCGUGGCUGCUGGUAGGAAACUACUGGCAG [#2 Exclusion - FMN A Attempt #4 (HarryS)],0.424
12,AAAUUCUUUUUUUUAUAUAACGAUUCAGAAGGAGCGAGGUAGAACUCAGGUAGGUCGCUGAAUAUAAGACUAGUGAUGUUAGUAA [#01 K4 Arginine A Same State],0.224

# Source: the supplement of paper PMC9170038
